Source: the nanobody polyreactivity screen of Harvey et al. (2022)

experiment: yeast display, Sf9 membrane polyspecificity reagent, FACS + sequencing; frameworks hold sequencing errors
Procedure, shortened: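 After 36–48 hours of galactose induction, yeast (Saccharomyces cerevisiae BJ5465) displaying a synthetic nanobody library were stained at 4 °C for 1 hour with 10% biotinylated, detergent-solubilized Sf9 membrane reagent. Streptavidin microbeads enriched the stained cells before FACS sorting into low and high (top ~1%) gates on anti-HA and streptavidin fluorescence. Each clone's polyreactivity label reflects its gate of origin.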

Sequence | polyreactivity (PSR sort gate)
QVPLVESGVGLVHAGGSLRISCATSGITFAYYFMGWYRQAPGKERELVAAISWTGSSTYYADSVKWRFTISRDNAKNTVYLQMNSLKQEDTAVYYCAARQRYLYDYWGQGTQVNVSS | high polyreactivity
QVPLVESGVGLVQAGGSLRISCAASGFTFSRYAMGWYRQAPGKERELVAAISRTGGRTYYADSVKGRFTITRDNAKNTVYLQMNSLKPEDTADYYCARVPVHSHLRQTYAMEYWGQGTQVTVSS | high polyreactivity
QVPLVESVGGLVQAGGSLRISCAASGSTLRGYAMGWYRKAPGKERELVAAISWRGGSTYYADSVKGRFTISRDNAKNTVYLQMNSLKPEDTAVYYCNALVAGHKYYTVTSKYDYWGQGTQLTVSS | high polyreactivity
QVQDVESGGGLVQAGGSLRLSCAAYGFIFYSYAMGWYRQAPGKERELVAAISTGDGSTTFADSVKGRFTISRDNAKNSVYLQMNSLKPEDTAVYYCNVKYRACYRTDFEYWGQGTQVTVSS | low polyreactivity
QVQFVESGGGLVQAGGSLRLSCAASGSIFYRYTMGSYRQAPGKERELVAAISSRGGSTYYADSVKGRFTISRDNAKNTVYLQMNSLKPEDTAVYYCAARYFRNPVFVIMDYWGQGTQVTVSS | high polyreactivity
QVQFVESGGGLVQAGGSLRLSCAASGSTFPYYAMGWYRQAPGKERELVAGINWRGSSTYYADSVKGRFTISRDNAKNTVYLQMNSLKPEDTAVYYCAARDYSYPQWYYYWGQGTQVTVSS | high polyreactivity
QVQFVESGGGLVQARCSLRLSCAASGFIFGVYAMGWYRQAPGKERELVAAINSGGGSTYYADSVKGRFTISRDNAKNTVYLQMNSLKPEDTAVYYCAVRYKSWYGFNYWGQGTQVTVSS | high polyreactivity
QVQHAESGGGLVQAGGSLRLSCAASGSTSAKNVMGWYRQAPGKVRELVAAISRSGGRTYYADSVKGRFTISRDNAKNTVYLQMNSLNPEDTAVYYCAARSATNHADDYYYWGQGTQVTVSS | high polyreactivity
QVQHEESGGGLVQAGGSLRLSCAASGFTFGTNAMGWSRQAPGKERELVAAISTRGGSTYYADSVKGRFTISRDNAKNTVYLQMNSLKPEDTAVYYCAAYWGRTRYYGYDYYYWGQGTQVTVSS | high polyreactivity
QVQHVDSGGGLVQAGGSLRLSCAASGIYVVYAMGWYRQAPGKERELVAAISSGVSTTYADSVKGRFTISRDNAKNTVYLQMNSLKPEDTAVYYCNTLWGHHYIVPYRTREFYYWGQGTQVTVSS | low polyreactivity
QVQHVDSGGGLVQAGGSLRLSCAASGSTFFTYAMGWYRQEPGKERELVAAISQSSVRTHYADSVKGRFTISRDNAKNTVYLQMNSLKPEDTAVYYCAARVYGRQYPGAPYYYWGQGTQVTVSS | high polyreactivity
QVQHVDSGGGLVQAGGSLRLSFAASGFRFGINAMGWYRPAPGKERELVAAISKRTGSTYYADSVKGRFTSSRDNAKNTVYLQMNSLKPEDTAVYYCNKRVFPGYRLGGFWGQGTQVTVSS | high polyreactivity
QVQHVEKGGALVQAGGSLRLSCAASGFTVDWYAMGWYIQAPGKERELVAAITTSGGTKYYADSVKGRFTISRDNAKNTVYLLMNCLNPEDTAVYYCAAEGTWSRNYDYWGQGTQVTVSS | low polyreactivity
QVQHVESAGGLVQAGGSLRLICAASGSIFFHYGMGWYRQAPGKERELVADIRSGGSTYYADSVKGRFTSSRDNAKNTVYLQMNSLKPDDSAVYYCAAVLALFGVTHVDYWGQGTQVSVSS | low polyreactivity
QVQHVESAGGLVQAGGSLRLSCSASGSIFYFYAMGWSRQAPGKERELVATITSSGSTNYADSVKGRFTISRDNAKNTVYLQMNSLKPEDTAVYYCNVDVISLKPYVSSYFAIKYDYWGQGTQVTVSS | low polyreactivity
QVQHVESAGGLVQAGGSLSLSCAASGSIFNLYAMGWYRQAPGKERELVAAIRWDGGSTYNADSVKGRFTISRDTAKNTVYLQMNSLKPEDTAVYYCAAETVYFRLLILDYWGQGTQVTVSS | high polyreactivity
QVQHVESGGALVQAGGSLRLSCAASARTFPGYTMGWYRQAPGKETELVAAITRVGTTYYADSVKGRFTISRDNAKNTVYLQMNSLKPEDTAVYYCAAVISQGFIRYYYWGQGTQVTVSS | high polyreactivity
QVQHVESGGCLVQAGGSLRLSCASSGSIFDRNAMGWYRQAPGKERELVAAISSRGGSTYYADSVKGRFTISRDNAKNTVYLQMNSLKPEDTAVYYSAKRRDLYGGYRPYYYWGQGTQVTVSS | high polyreactivity
QVQHVESGGGIDQAGGSLRLSCAASGSTSVQYAMGWYRQATGKERELVAAISLSVGSTYYADSVKGRFTISRDNAKITVYLQMNCLKPEDTAVYYCASGYPPEDPEDYWGQGTQVTVSS | low polyreactivity
QVQHVESGGGIVHAGGSLRLSCAASGSIFTRYTMGWDRMATGKERELVAVISDSSGRTYYADSVKGRFTISRDNAKNTFYLQLNSLKPADTAVYYCAAEYSDIYEYWGQGTQVTVSS | low polyreactivity
QVQHVESGGGIVQAGGSLRLSCAASGIIFTSNAMGWYRQAPGKERELVAAINWSGARTYYADSVKGRFTISRDNAKNTVYLQMNSLKPEDTAVYYCNVVTRAATYPDYSYDYWGQGTQVTVSS | high polyreactivity
QVQHVESGGGIVQAGGSLRLSCAASGRTYAINAMGSYRQAPGKEMELLASITTRDSSTYYADSVKGRFTISRDNAKNTVYLQMKSLIPDDTAVYYCAKVKLVTYLYRLFVYGSYYWGLGTQVTVSS | low polyreactivity

Sequence | polyreactivity (PSR sort gate)
QVQHVESGGGLLQAGGSLRLSCAASGITFWPYAMGWYRQAPGKERELVAAIRASVGRTYYADSVKGRFTISREYAKNTVYLQMNSLIPVDTAVYYCNAYGRYGKFRVEYDYWGQGTQVTVSS | low polyreactivity
QVQHVESGGGLVHAGGRLRLRCAASGSTFVTNVMGWYSQEPGKEMELVAAISYSGGNTYYEDSEKGRFTISRDNAQNSVYLQMNSLKQEDTAVYYCAAAYKPFKKMGYWGQGTQVTVSS | high polyreactivity
QVQHVESGGGLVQAAGSLRLSCAASGRIFYRNAMGWSRQAPGKERELVAAISKSGGSTYYSDSVKGRFTISRDNAKNTVYLQMNSLKPEDTAVYYCAAGTRLSDGYYWGQGTQVTVSS | high polyreactivity
QVQHVESGGGLVQAAGSLRLSCAASGTTLSSYAMGWSRQAPGKVRELVAAINSSGGRTYYADSVKGRFTISRDNAKNTVYLQMNSLKPDDTAVYYCAATRGRYREYEDYWGQGTQVTVSS | high polyreactivity
QVQHVESGGGLVQAGGGLRLSCAASGRIFRQNTMGWYRHAAGKEWELVASISLSAGSTFYADSVKGRFTISRDNAKNTVYLQMNSLKPEDTAVYYCAAEKPVHYVRGVHYDYWGQGTQVTVSS | low polyreactivity
QVQHVESGGGLVQAGGILRFSSPASGGTVNINAMGWYIQAPGKERELFADISYSDGTTDYADSVKGRFTISRDNAKNTVYLQMNSLKPEDTAVYYCAAYYYYYSGFGQRSYSWGQGTNVTVSS | low polyreactivity
QVQHVESGGGLVQAGGILRLICDASGGIFAANAMGWYRPAPGQERELVAAITSVGSTYADSVKGRFTISRDNAKNTVYLQMNSLKPEDTAVYYCAADTESVIVWYEDDYWGQGTQVTVSS | low polyreactivity
QVQHVESGGGLVQAGGRLRLTCPASGSTVGYYAMGWYRQAPGKEREFVATITFGGSTHYADSVKGRFTISRDNAKYTVYLQMNSLKPEDTAFYYCAKRYYTNRHSRAFGYWGQGTQVTVSS | high polyreactivity
QVQHVESGGGLVQAGGSLLLSCAASGFIFKSNAMGWYRQAPGKERELVAAITSSGGRTYYADSVKGRFTISRDNAKNTVYLQMNSLKPEDTAVYYCAADIALGRYYYWGQGTQVTVSS | high polyreactivity
QVQHVESGGGLVQAGGSLLLSCAASGSTFARYAMGWYRQPPGKERELVAAISRSGSNTYYADSVKGRFTISRDNAKNTVYLQMNSLKPEDTAVYYCNRTHRQSFSKLDYWGQGTQVTVSS | high polyreactivity
QVQHVESGGGLVQAGGSLRISCAPSGRTFFPNAMGCYRQAPGKEREFVAAITKTDDSTYYADSVKGRFTISRDNAKNTVYLPMNSLKPEDTAVYYCNAGDTQIRFYYWGQGTQETVSS | low polyreactivity
QVQHVESGGGLVQAGGSLRLICAASGITFHYYAMGWYRQAPGKDRELVAAISSGGRTNYADSVKGRFTISRDNAKNTVYLQMNCLKPEDTAVYYCAGVYFGGYTATVYYWGQGTQVTVSS | high polyreactivity
QVQHVESGGGLVQAGGSLRLICAASGRIFTRYAMGWYRQAPGKERELVAAISASGGSTHYADSVKGRFTISRDNAKNTVYLQMNSLKPEDTAVYYCADAYVSRNSGFGYWGQGTQVTVSS | low polyreactivity
QVQHVESGGGLVQAGGSLRLSCAACGRTFTPYAMGWYLQEPGKDREFVAAIDTSGGSTYADSVNGRFTISRDNAKYTVYLQKNSLKPEDTAVYYCGTRGFYSWDYWYLWEYDYWGQGTQVTVSS | low polyreactivity
QVQHVESGGGLVQAGGSLRLSCAASAFTFRFYAMGWYRQAPAKEMELVAAISWSGTSTYYADSVKGRFTLSRDNAKNTVYLQMNSLIQDDTAVYYCATQYRRRQRKYDYWGQGTQVTVSS | high polyreactivity
QVQHVESGGGLVQAGGSLRLSCAASARTFHGYPLGVYRQAAGKETELVARINWSDGRTYYADSVKGRFTMSRDNAKNTVYFQMNSLKPEDTAFYYCAAEKTVSYAPAWYYYWGQGTQVTVSS | low polyreactivity
QVQHVESGGGLVQAGGSLRLSCAASASTFAWYPMGWYRQAPGKERELVAAITRDGSTYYADSVKGRFTISRDNAKNTVYLQMNSLKPEDTAVYYCAADLSYWRGGHSRNYWGQGTQVTVSS | low polyreactivity
QVQHVESGGGLVQAGGSLRLSCAASGAIFWGYAMGWYRQAPGKERELVATISWTGGSTYYADSVKGRFTISRDNAKNTVYLQMNSLKPEDTAVYYCAKVIIHYYYLVNLVDVDYWGQGTQVTVSS | low polyreactivity
QVQHVESGGGLVQAGGSLRLSCAASGFIFSSYAIGWYRQAPGKEREFVASIRRRGGSTYYAYSVKGRFTISRDNAKNTVILQMNRLIPEDTAVYYCAREVYRHFAPVGYDYWGQGTQVTVSS | high polyreactivity
QVQHVESGGGLVQAGGSLRLSCAASGFIFSTNAMGRYRQAPGKERELVATIRSGGSTNYADSVKGRFTISRDNAKYTVYLQMNSLKPEDTAVYYCNVDDTSWTTSGGRFGQVEYDYWGQGTQVTVSS | low polyreactivity
QVQHVESGGGLVQAGGSLRLSCAASGFIFWDYAMGWYRQAPGKERELVAAISDSGGDTYYADSVKGRFTISRDNAKNTVYLQMNSLIPEDTAVYYCAAETYCGGYPVTYDYWGQGTQVTVSS | low polyreactivity
